For 13 molecules, Kd results are on record in article PMC10786891, “Massively parallel profiling of RNA-targeting CRISPR-Cas13d”.

Sequences and labels used below:
T1: EsCas13d, nuclease-dead (Eubacterium siraeum, UniProt B0MS50, R295A;H300A;R849A;H854A)
T1 sequence: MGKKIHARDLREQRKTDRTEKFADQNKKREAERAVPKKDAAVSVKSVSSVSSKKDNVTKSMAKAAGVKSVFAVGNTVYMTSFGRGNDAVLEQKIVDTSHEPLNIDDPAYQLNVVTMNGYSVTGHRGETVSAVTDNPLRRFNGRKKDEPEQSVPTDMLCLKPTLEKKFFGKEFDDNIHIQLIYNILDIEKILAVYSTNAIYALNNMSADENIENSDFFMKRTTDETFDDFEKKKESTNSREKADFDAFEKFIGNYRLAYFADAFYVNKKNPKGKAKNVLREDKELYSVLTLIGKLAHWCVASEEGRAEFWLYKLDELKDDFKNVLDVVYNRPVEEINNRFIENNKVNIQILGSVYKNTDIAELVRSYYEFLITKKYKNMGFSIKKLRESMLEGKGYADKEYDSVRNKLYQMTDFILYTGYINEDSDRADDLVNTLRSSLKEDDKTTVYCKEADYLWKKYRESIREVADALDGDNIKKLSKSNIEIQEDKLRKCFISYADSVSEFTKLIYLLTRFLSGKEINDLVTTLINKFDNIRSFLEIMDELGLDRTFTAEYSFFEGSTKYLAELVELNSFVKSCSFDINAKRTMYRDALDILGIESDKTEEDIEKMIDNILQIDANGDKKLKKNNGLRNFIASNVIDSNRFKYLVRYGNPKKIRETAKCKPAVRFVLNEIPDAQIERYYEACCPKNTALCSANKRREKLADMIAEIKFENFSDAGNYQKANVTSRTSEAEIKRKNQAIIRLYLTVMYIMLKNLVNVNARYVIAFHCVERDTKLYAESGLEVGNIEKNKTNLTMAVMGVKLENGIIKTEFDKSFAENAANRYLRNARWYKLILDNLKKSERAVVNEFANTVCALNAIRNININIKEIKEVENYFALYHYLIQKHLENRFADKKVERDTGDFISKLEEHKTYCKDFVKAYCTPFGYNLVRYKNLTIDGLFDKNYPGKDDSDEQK

B1: target 1 complement block 3-9 (mixed)
RNA 1: CACCCGUGCAAAAAUGCAGGGGUCUAAAACUGAGCGGAUAACCUCUCUAUGG
RNA 2: GGGAAUGGAUCCACAUCUACGAAUUCGUACCAUAGAGAGGUUUAGGCGACACCGAGAUCGGAAGAGCACACGU
B2: target 1 MT 5'PFS AAG 3'PFS UUG (mixed)
RNA 1: CACCCGUGCAAAAAUGCAGGGGUCUAAAACUGAGCGGAUAACCUCUCUAUGG
RNA 2: GGGAAUGGAUCCACAUCUACGAAUUCAAGCCAUAGAGAGGUUAUCCGCUCAUUGAGAUCGGAAGAGCACACGU
B3: target 1 MT 5'PFS UAG 3'PFS AAA (mixed)
RNA 1: CACCCGUGCAAAAAUGCAGGGGUCUAAAACUGAGCGGAUAACCUCUCUAUGG
RNA 2: GGGAAUGGAUCCACAUCUACGAAUUCUAGCCAUAGAGAGGUUAUCCGCUCAAAAAGAUCGGAAGAGCACACGU
B4: target 1 insC 3' of 16,insA 3' of 8 (mixed)
RNA 1: CACCCGUGCAAAAAUGCAGGGGUCUAAAACUGAGCGGAUAACCUCUCUAUGG
RNA 2: GGGAAUGGAUCCACAUCUACGAAUUCGUACCAUAGACGAGGUUAUACCGCUCACCGAGAUCGGAAGAGCACACGU
B5: target 1 MT 5'PFS GGG 3'PFS UUC (mixed)
RNA 1: CACCCGUGCAAAAAUGCAGGGGUCUAAAACUGAGCGGAUAACCUCUCUAUGG
RNA 2: GGGAAUGGAUCCACAUCUACGAAUUCGGGCCAUAGAGAGGUUAUCCGCUCAUUCAGAUCGGAAGAGCACACGU
B6: target 1 MT 5'PFS GGG 3'PFS UUU (mixed)
RNA 1: CACCCGUGCAAAAAUGCAGGGGUCUAAAACUGAGCGGAUAACCUCUCUAUGG
RNA 2: GGGAAUGGAUCCACAUCUACGAAUUCGGGCCAUAGAGAGGUUAUCCGCUCAUUUAGAUCGGAAGAGCACACGU
B7: target 1 insA 3' of 17,insA 3' of 4 (mixed)
RNA 1: CACCCGUGCAAAAAUGCAGGGGUCUAAAACUGAGCGGAUAACCUCUCUAUGG
RNA 2: GGGAAUGGAUCCACAUCUACGAAUUCGUACCAUAGAAGAGGUUAUCCGCAUCACCGAGAUCGGAAGAGCACACGU
B8: target 1 MT 5'PFS AAG 3'PFS UUC (mixed)
RNA 1: CACCCGUGCAAAAAUGCAGGGGUCUAAAACUGAGCGGAUAACCUCUCUAUGG
RNA 2: GGGAAUGGAUCCACAUCUACGAAUUCAAGCCAUAGAGAGGUUAUCCGCUCAUUCAGAUCGGAAGAGCACACGU
B9: target 1 MT 5'PFS UAG 3'PFS AAC (mixed)
RNA 1: CACCCGUGCAAAAAUGCAGGGGUCUAAAACUGAGCGGAUAACCUCUCUAUGG
RNA 2: GGGAAUGGAUCCACAUCUACGAAUUCUAGCCAUAGAGAGGUUAUCCGCUCAAACAGAUCGGAAGAGCACACGU
B10: target 1 MT 5'PFS GGG 3'PFS UUA (mixed)
RNA 1: CACCCGUGCAAAAAUGCAGGGGUCUAAAACUGAGCGGAUAACCUCUCUAUGG
RNA 2: GGGAAUGGAUCCACAUCUACGAAUUCGGGCCAUAGAGAGGUUAUCCGCUCAUUAAGAUCGGAAGAGCACACGU
B11: target 1 MT 5'PFS UAG 3'PFS AAG (mixed)
RNA 1: CACCCGUGCAAAAAUGCAGGGGUCUAAAACUGAGCGGAUAACCUCUCUAUGG
RNA 2: GGGAAUGGAUCCACAUCUACGAAUUCUAGCCAUAGAGAGGUUAUCCGCUCAAAGAGAUCGGAAGAGCACACGU
B12: target 1 MT 5'PFS GGG 3'PFS UUG (mixed)
RNA 1: CACCCGUGCAAAAAUGCAGGGGUCUAAAACUGAGCGGAUAACCUCUCUAUGG
RNA 2: GGGAAUGGAUCCACAUCUACGAAUUCGGGCCAUAGAGAGGUUAUCCGCUCAUUGAGAUCGGAAGAGCACACGU
B13: target 1 U10A,G15C (mixed)
RNA 1: CACCCGUGCAAAAAUGCAGGGGUCUAAAACUGAGCGGAUAACCUCUCUAUGG
RNA 2: GGGAAUGGAUCCACAUCUACGAAUUCGUACCAUAGACAGGUAAUCCGCUCACCGAGAUCGGAAGAGCACACGU

The target of this series is T1, EsCas13d, nuclease-dead. As to the kind of experiment: crRNA (strand 1, pre-loaded); Mg2+; 40 mM Tris-HCl pH 7.5, 150 mM NaCl, 6 mM MgCl2, 1 mM DTT, 0.1% Tween-20, 0.2 mg/ml BSA; 25 C; 10 min per concentration, then washed. Particulars: tags: His6-TwinStrep-SUMO cleaved; N-terminal SNAP kept (SNAP-Surface 488); label: 3' end held by stalled T7 RNA polymerase.
B1 returned a dissociation constant (Kd) of 8.8 ± 0.4 nM.
B2 showed a Kd of 13.5 ± 2 nM.
B3 displayed a Kd of 34 ± 7 nM.
As for B4, the dissociation constant Kd amounted to 56 ± 12 nM.
Regarding B5, the Kd is 16.4 ± 1.95 nM.
In the case of B6 it was 14.7 ± 2.05 nM; in that of B7, 10 ± 0.7 nM.
The value for B8 was 16 ± 6 nM; that for B9 was 34 ± 6 nM.
B10 showed an equilibrium dissociation constant (Kd) of 16.8 ± 2.55 nM.
In turn, B11 yielded a Kd of 45.5 ± 13 nM.
The molecule B12 gave a Kd of 7.3 ± 0.45 nM.
Molecule B13 gave a Kd of 98 ± 17 nM.
